Earlier results as cited in article PMC9085562.

Tests used:
[1] = biological target: H3K9me3 peptide (Homo sapiens) (UniProt P68431); assay: fluorescence polarization
[2] = biological target: H3K9me1 peptide (Homo sapiens) (UniProt P68431)

- Kd [1]: 3.2 µM
- Kd [2]: 12.5 µM
Substance: Cbx1 (from UniProt P83916)
